The source of these data is article PMC11246403.

One test addresses KNP-301 (UniProt Q9Y279). Nature of the test: SPR. A general note: Surface plasmon resonance follows binding to a sensor surface in real time, without labels.
For the next test, the target named is C3 (UniProt P01024). Description: ELISA.
The next test concerns the target rat VEGF (rat) (UniProt P16612). Description: ELISA. (In general: ELISA stands for enzyme-linked immunosorbent assay.)
For a further test, the target named is rabbit C3b (rabbit) (UniProt P12247). Nature of the test: ELISA.
UniProt P12247, sequence (P12247 whole entry, chain 1 of 2): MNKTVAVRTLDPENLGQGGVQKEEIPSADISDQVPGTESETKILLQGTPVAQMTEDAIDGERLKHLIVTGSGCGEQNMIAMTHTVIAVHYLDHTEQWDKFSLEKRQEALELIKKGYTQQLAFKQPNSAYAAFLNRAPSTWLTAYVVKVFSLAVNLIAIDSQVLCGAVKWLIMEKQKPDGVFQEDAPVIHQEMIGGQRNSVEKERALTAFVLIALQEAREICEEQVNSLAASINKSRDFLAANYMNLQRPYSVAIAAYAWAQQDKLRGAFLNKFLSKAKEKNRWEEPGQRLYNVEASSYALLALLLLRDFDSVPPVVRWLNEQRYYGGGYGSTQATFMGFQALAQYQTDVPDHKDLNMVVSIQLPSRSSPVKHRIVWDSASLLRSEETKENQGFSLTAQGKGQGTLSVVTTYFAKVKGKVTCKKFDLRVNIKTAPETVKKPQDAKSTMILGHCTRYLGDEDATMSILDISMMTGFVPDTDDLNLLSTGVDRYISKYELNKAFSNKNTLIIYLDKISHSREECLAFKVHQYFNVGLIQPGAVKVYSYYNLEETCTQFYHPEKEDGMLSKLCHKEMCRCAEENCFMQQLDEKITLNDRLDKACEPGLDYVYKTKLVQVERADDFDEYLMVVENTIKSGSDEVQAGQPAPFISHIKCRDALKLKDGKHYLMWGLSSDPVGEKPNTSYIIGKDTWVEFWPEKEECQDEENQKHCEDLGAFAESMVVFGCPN
UniProt P12247, sequence (P12247 whole entry, chain 2 of 2): as the sequence (P12247 whole entry, chain 1 of 2) above
The target in the next test is human C3b (human) (UniProt P01024). Nature of the test: ELISA.
A further test has as its target Human VEGF165 (human). Nature of the test: ELISA.
For test [1], the target named is cynomolgus C3b (cynomolgus monkey). Nature of the test: ELISA.
Test [2] deals with cynomolgus VEGF (cynomolgus monkey). Nature of the test: ELISA.
A further test has as its target rabbit VEGF (rabbit). Nature of the test: ELISA.
The next test deals with rat C3b (rat) (UniProt P01026). Nature of the test: ELISA.
UniProt P01026, sequence (P01026 25-1663): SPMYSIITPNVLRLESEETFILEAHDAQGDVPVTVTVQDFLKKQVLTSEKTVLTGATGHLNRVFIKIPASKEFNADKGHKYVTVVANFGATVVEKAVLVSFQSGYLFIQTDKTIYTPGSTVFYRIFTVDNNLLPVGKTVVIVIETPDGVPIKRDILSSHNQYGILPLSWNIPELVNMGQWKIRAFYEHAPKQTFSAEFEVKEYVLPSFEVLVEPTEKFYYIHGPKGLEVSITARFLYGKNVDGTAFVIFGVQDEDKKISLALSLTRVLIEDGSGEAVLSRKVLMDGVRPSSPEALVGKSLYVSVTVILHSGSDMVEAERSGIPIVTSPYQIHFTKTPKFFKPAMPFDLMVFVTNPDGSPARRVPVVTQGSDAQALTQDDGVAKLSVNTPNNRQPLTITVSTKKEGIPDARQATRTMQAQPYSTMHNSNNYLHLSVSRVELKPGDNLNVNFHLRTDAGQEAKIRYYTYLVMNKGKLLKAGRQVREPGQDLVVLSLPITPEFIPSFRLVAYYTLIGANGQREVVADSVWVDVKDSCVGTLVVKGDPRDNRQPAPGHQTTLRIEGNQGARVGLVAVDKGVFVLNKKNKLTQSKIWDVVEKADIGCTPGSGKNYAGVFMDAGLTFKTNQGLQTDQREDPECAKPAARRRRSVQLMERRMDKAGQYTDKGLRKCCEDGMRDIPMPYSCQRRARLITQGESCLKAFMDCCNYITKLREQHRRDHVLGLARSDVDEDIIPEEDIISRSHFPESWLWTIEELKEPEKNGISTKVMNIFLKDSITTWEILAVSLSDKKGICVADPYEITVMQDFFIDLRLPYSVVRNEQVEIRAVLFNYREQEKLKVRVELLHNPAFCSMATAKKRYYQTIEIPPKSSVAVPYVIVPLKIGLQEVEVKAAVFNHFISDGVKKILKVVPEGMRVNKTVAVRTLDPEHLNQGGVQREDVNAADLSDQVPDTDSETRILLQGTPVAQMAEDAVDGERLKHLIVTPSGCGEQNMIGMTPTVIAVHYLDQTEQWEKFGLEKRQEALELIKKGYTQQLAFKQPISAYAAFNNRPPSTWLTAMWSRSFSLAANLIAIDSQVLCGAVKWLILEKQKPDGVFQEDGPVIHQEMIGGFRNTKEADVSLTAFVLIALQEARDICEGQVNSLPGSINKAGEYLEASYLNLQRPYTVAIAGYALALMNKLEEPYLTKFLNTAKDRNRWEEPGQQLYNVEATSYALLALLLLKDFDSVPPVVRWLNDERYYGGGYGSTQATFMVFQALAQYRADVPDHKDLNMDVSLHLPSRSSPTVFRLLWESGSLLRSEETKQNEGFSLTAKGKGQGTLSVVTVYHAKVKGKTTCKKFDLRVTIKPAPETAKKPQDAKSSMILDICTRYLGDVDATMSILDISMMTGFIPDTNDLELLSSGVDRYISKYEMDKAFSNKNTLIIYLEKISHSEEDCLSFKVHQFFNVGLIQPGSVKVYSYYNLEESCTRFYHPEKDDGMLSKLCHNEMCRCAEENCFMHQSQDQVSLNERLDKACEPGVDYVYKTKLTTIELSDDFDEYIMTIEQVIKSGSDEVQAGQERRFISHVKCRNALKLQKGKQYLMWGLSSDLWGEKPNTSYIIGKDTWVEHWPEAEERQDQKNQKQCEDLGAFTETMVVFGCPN

The term Kd denotes the constant that tells how readily two partners part at equilibrium. Substance “human C3b (from UniProt P01024 23-667; P01024 749-1663) (natural protein)” had a Kd with KNP-301 of 4.34 nM.

In the test with KNP-301, Human VEGF165 (ligand) showed a Kd of 0.0628 nM.

With “KNP-301 (from UniProt Q9Y279 20-283) (Fc fusion)”, the fold lower binding affinity than to C3b (ratio of IC50 values) in the test with C3 amounted to 10 fold. Also, the relative binding affinity (%) was determined as 80.8% in the test with rat VEGF (rat); 1.2% with rabbit C3b (rabbit); 100% with human C3b (human); 100% with Human VEGF165 (human); 78.3% in [1]; 75.8% in test [2]. Moreover, the relative binding affinity (%) in the test with rabbit VEGF (rabbit) came out at 165%; in the test with rat C3b (rat) it was 6.3%.
